Test results reported in paper PMC8988012 (The Journal of Biological Chemistry, 2022).

What was measured:
[1] = mCherry-Zyxin microscopy, U2OS, ± GFP-14-3-3γ; settings: glycan changed form; control: wild type
[2] = GFP-Zyxin1–350 microscopy, U2OS, ± mCherry-14-3-3γ; settings: glycan changed form; control: Zyxin (1–350), Ser-169
His-Zyxin (wildtype) = target: T1, His-Zyxin (wildtype) (UniProt Q15942 1-572); assay: pull-down
T1 sequence (looked up): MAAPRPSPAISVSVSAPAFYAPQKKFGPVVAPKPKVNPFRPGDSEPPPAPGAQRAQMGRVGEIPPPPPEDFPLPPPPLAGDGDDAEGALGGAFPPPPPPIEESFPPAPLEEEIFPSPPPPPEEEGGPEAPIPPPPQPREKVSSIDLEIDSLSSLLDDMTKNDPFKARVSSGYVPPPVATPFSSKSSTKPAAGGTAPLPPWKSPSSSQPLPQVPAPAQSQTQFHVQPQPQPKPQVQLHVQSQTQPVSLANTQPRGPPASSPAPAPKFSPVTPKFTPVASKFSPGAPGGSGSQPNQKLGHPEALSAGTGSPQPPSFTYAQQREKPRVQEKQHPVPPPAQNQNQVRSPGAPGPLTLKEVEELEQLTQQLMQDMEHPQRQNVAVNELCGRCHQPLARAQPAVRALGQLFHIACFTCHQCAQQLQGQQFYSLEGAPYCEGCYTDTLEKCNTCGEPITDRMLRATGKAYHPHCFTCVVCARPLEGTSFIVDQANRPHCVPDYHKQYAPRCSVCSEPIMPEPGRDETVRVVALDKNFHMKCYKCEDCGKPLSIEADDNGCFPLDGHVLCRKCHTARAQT

B1: Zyxin: S169C (protein)
parent chain: MAAPRPSPAISVSVSAPAFYAPQKKFGPVVAPKPKVNPFRPGDSEPPPAPGAQRAQMGRVGEIPPPPPEDFPLPPPPLAGDGDDAEGALGGAFPPPPPPIEESFPPAPLEEEIFPSPPPPPEEEGGPEAPIPPPPQPREKVSSIDLEIDSLSSLLDDMTKNDPFKARVSSGYVPPPVATPFSSKSSTKPAAGGTAPLPPWKSPSSSQPLPQVPAPAQSQTQFHVQPQPQPKPQVQLHVQSQTQPVSLANTQPRGPPASSPAPAPKFSPVTPKFTPVASKFSPGAPGGSGSQPNQKLGHPEALSAGTGSPQPPSFTYAQQREKPRVQEKQHPVPPPAQNQNQVRSPGAPGPLTLKEVEELEQLTQQLMQDMEHPQRQNVAVNELCGRCHQPLARAQPAVRALGQLFHIACFTCHQCAQQLQGQQFYSLEGAPYCEGCYTDTLEKCNTCGEPITDRMLRATGKAYHPHCFTCVVCARPLEGTSFIVDQANRPHCVPDYHKQYAPRCSVCSEPIMPEPGRDETVRVVALDKNFHMKCYKCEDCGKPLSIEADDNGCFPLDGHVLCRKCHTARAQT
Q: Which “other: 14-3-3γ-induced nuclear localisation” value [1] does the source give for B1 here?
A: no change

Q: What about the “other: 14-3-3γ-induced nuclear localisation” value [2] of the same binder?
A: no change

B2: GST-14-3-3γ (natural protein, UniProt P61981 1-247, looked up)
chain: MVDREQLVQKARLAEQAERYDDMAAAMKNVTELNEPLSNEERNLLSVAYKNVVGARRSSWRVISSIEQKTSADGNEKKIEMVRAYREKIEKELEAVCQDVLSLLDNYLIKNCSETQYESKVFYLKMKGDYYRYLAEVATGEKRATVVESSEKAYSEAHEISKEHMQPTHPIRLGLALNYSVFYYEIQNAPEQACHLAKTAFDDAIAELDTLNEDSYKDSTLIMQLLRDNLTLWTSDQQDDDGGEGNN
Q: Does B2 bind (His-Zyxin (wildtype))?
A: binds
